Measured values published in patent publication US20250206841A1 (ADEPT THERAPEUTICS, published 2025).
Values belong to the binder of their own block, whether it stands above or below them.

Legend:
[1] = target: T1, human Trop-2-His protein (human, UniProt P09758 27-274); assay: BLI (Gator Prime), LEM supernatant Ab on HFC probe
T1 construct: extracellular domain; Assay paragraphs say only 'Trop-2-His'; also called hTrop-2; Kactus Cat #TRP-HM121; not shown: His tag
T1 sequence (looked up): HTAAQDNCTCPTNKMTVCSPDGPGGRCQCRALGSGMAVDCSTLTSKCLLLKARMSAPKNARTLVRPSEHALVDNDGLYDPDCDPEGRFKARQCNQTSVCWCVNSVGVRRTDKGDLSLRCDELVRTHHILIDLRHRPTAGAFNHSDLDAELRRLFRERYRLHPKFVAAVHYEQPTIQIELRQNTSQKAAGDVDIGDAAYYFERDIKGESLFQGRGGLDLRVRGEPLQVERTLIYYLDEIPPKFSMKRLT
Method: (§1) After three times of regeneration and neutralization of HFC probe (Gator, Cat #160003), LEM transfection supernatant samples to be tested in K buffer was diluted 1:1 in K buffer and immobilized onto HFC probe. […] The association and dissociation of human or cynomolgus Trop-2-His antigen from antibody was measured on BLI machine Gator Prime. Affinity was calculated using Gator Bio analysis software. Blank control was used for reference subtraction. 1 μg/ml of Sacituzumab govitecan was used as positive control.
(§2) Table 23 below summarizes the binding affinity of exemplary anti-Trop-2 antibodies in LEM transfection supernatant samples to human and cynomolgus Trop-2 using Gator.

[2] = target: T2, cynomolgus Trop-2-His protein (cynomolgus, UniProt P09758 27-274 (human entry)); assay: BLI (Gator Prime), LEM supernatant Ab on HFC probe
T2 construct: also called cynmolgus Trop-His; Kactus Cat #TRP-CM121; not shown: His tag
T2 chain: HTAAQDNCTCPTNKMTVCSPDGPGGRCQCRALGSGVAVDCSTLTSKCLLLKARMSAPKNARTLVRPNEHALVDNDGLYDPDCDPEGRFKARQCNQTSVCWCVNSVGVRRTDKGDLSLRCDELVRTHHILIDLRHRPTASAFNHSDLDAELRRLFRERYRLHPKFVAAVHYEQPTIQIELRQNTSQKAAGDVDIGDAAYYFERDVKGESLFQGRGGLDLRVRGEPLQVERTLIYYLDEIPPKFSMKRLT
Method: as §1, §2

[3] = target: cynomolgus Trop-2-His protein (cynomolgus); assay: ELISA, coated Trop-2 protein
[4] = target: T1, human Trop-2-His protein; assay: BLI (Gator Plus), Ab on HFC probe
[5] = target: T1, human Trop-2-His protein; assay: BLI (Gator Prime), positive control at 1 µg/ml on HFC probe
[6] = target: cynomolgus Trop-2-His protein (cynomolgus); assay: as above
[7] = target: T3, human Trop-2 expressed on cell surface (human, UniProt P09758 27-323); assay: flow cytometry, MCF-7 cells
T3 sequence (looked up): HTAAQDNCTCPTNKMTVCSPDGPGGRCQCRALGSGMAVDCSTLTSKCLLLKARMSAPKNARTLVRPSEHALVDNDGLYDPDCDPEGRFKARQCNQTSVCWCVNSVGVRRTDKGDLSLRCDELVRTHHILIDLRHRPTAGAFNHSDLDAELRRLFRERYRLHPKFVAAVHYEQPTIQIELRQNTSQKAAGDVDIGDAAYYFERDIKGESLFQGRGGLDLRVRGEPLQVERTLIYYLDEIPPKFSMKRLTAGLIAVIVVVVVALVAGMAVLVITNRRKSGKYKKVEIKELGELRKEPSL
Method: (§3) Cells were then resuspended in FACS buffer (1×DPBS/1% FBS) at 10⁶/ml concentration. One hundred microliter (100 μl) of cells were aliquoted into a single well in 96 well plates. The antibodies to be tested were serially diluted at 1:3 fold starting at 15 μg/mL and were then added into each well. The antibodies were mixed with cells and the mixtures were incubated on ice for 1 hour. After washing with FACS buffer, one hundred microliter (100 μl) of 1:400 diluted PE-conjugated anti-human Fc secondary antibody (Jackson Immuno Research) was added into each well and incubated for 30 minutes on ice. After washing with FACS buffer, stained cells were resuspended at diluted 7-ADD (Biolegend, used at 1:100 dilution) and analyzed on Guava 11HT or 5HT (Luminex). Data was analyzed using Flowjo software. EC₅₀ values were calculated using GraphPad Prism. Sacitnzurnab govitecan was used as positive control. Anti-HEL.hIgG1 was used as isotype negative control. Similar assay was performed using MCF-7 cells (known to express human Trop-2).

[8] = target: T1, human Trop-2-His protein; assay: ELISA, coated Trop-2 protein
Method: Purified antibodies were tested by ELISA to confirm their binding and affinity against human and cynomolgus Trop-2-His protein. Briefly, 96-well Maxisorp plates (Nunc) were coated with 100 μl/well of 0.5 μg/ml human (Kactus Cat #TRP-HM121, or Sino Biological, Cat #10428-HO8H) or cynomolgus Trop-2 protein (Kactus Cat #TRP-CM121, or Sino Biological, Cat #90893-CO8H) diluted in 1×PBS (GIBCO) overnight at 4° C. Plates were washed four times with 300 μl/well washing buffer (1×PBST, diluted from 20×PBST (Thermo Scientific) with distilled water)) and then blocked with 300 μl/well of blocking buffer (1×PBST/3% BSA (BSA, Sigma)) for 2 hours at RT on plate shaker at 100 rpm. Plates were washed and added with 100 μl/well of testing antibodies, which were serial diluted with assay buffer (PBST/1% BSA). The antibodies were incubated at room temperature for 2 hours on plate shaker at 100 rpm. Plates were washed. One hundred microliters (100 μl) of 1:10,000 diluted horseradish peroxidase (HRP) conjugated anti-hIgG antibody (Jackson Immuno Research) was added into each well and incubated at room temperature for 1 hour on plate shaker at 100 rpm. Plates were washed and added with 100 μl/well TMB substrate for color development in dark at room temperature for up to 10 minutes. After addition of 50 μl/well of stop solution (1N H₂SO₄), plates were read at 450 nm on a plate reader (SpectraMax M5). EC₅₀ values were calculated using Graphpad Prism. Sacituzumab govitecan, was used as positive control. Anti-HEL.hIgG1 was used as isotype control.

[9] = target: T3, human Trop-2 expressed on cell surface; assay: cell-based or functional assay
[10] = target: T3, human Trop-2 expressed on cell surface; assay: flow cytometry, MDA-MB-231-GFP cells
Method: as §3

[11] = target: T1, human Trop-2-His protein; assay: BLI (Gator Prime), positive control at 1 µg/ml on HFC probe; second line of values
[12] = target: cynomolgus Trop-2-His protein (cynomolgus); assay: as above

- Kd [1]: 0.696 nM
- koff [1]: 0.00032 s⁻¹
- kon [1]: 459000 M⁻¹ s⁻¹
- Kd [2]: 0.755 nM
- koff [2]: 0.00054 s⁻¹
- kon [2]: 721000 M⁻¹ s⁻¹
B1: 71F10 (antibody, V domains shown)
VH: QSLEESGGGLVQPGASLTLTCTVSGFDFSSNAMTWVRQAPGEGLEYIGFIGIRGNIYYANWAKGRFTISKTSSTTVTLQMTSLTVADTATYFCARGGLWTGNSYFDLWGPGTLVTVSS
VL: YDMTQTPASVSAAVGGTVTINCQASESISRYLAWYQQKPGQPPKPLIYRASTLASGVPSRFKGSGTGTDYTLTISDLECADAATYYCQQGYGYSTVGNAFGGGTEVVVK
notes: Rabbit-derived clone; LEM construct: VH + rabbit IgG CH1 + human IgG1 CH2-CH3

- EC50 [3]: 0.017 nM
- kon [4]: 239000 M⁻¹ s⁻¹
- Kd [5]: 0.755 nM
- koff [5]: 0.00022 s⁻¹
- kon [5]: 285000 M⁻¹ s⁻¹
- Kd [6]: 0.614 nM
- koff [6]: 0.00022 s⁻¹
- kon [6]: 405000 M⁻¹ s⁻¹
- EC50 [7]: 2.2 nM
- EC50 [8]: 0.014 nM
- EC50 of ADCC (NFAT-CD16 reporter), MCF-7; average from 3 plates [9]: 2.72 nM
- EC50 of ADCC (NFAT-CD16 reporter), MDA-MB-231; average from 3 plates [9]: 0.55 nM
- Internalization %, MCF-7, 0.25 µg/ml, 1 h [9]: 30%
- Internalization %, MCF-7, 0.25 µg/ml, 2 h [9]: 43%
- Internalization %, MCF-7, 0.25 µg/ml, 4 h [9]: 44%
- Internalization %, MCF-7, 0.5 µg/ml, 1 h [9]: -4%
- Internalization %, MCF-7, 0.5 µg/ml, 2 h [9]: 41%
- Internalization %, MCF-7, 0.5 µg/ml, 4 h [9]: 55%
- Internalization %, MDA-MB-231, 0.25 µg/ml, 2 h [9]: 41%
- Internalization %, MDA-MB-231, 0.25 µg/ml, 4 h [9]: 46%
- Internalization %, MDA-MB-231, 0.5 µg/ml, 2 h [9]: 42%
- Internalization %, MDA-MB-231, 0.5 µg/ml, 4 h [9]: 45%
- Internalization %, MDA-MB-231, 1 µg/ml, 2 h [9]: 43%
- Internalization %, MDA-MB-231, 1 µg/ml, 4 h [9]: 49%
- Internalization %, MDA-MB-231, 2 µg/ml, 2 h [9]: 43%
- Internalization %, MDA-MB-231, 2 µg/ml, 4 h [9]: 48%
- EC50 [10]: 0.09 nM
- Kd [11]: 0.497 nM
- koff [11]: 0.00014 s⁻¹
- kon [11]: 281000 M⁻¹ s⁻¹
- Kd [12]: 0.772 nM
- koff [12]: 0.00025 s⁻¹
- kon [12]: 326000 M⁻¹ s⁻¹
B2: Sacituzumab govitecan (antibody, INN chains, looked up, V domains shown)
VH: QVQLQQSGSELKKPGASVKVSCKASGYTFTNYGMNWVKQAPGQGLKWMGWINTYTGEPTYTDDFKGRFAFSLDTSVSTAYLQISSLKADDTAVYFCARGGFGSSYWYFDVWGQGSLVTVSS
VL: DIQLTQSPSSLSASVGDRVSITCKASQDVSIAVAWYQQKPGKAPKLLIYSASYRYTGVPDRFSGSGSGTDFTLTISSLQPEDFAVYYCQQHYITPLTFGAGTKVEIKR
modifications: SN-38 payload (govitecan)

- Kd [1]: 0.675 nM
- koff [1]: 0.00038 s⁻¹
- kon [1]: 568000 M⁻¹ s⁻¹
- Kd [2]: 0.538 nM
- koff [2]: 0.00038 s⁻¹
- kon [2]: 888000 M⁻¹ s⁻¹
B3: 3E9 (antibody, V domains shown)
VH: QEQLKESGGGLVQPGGSLKLSCKASGFDFNNYGVSWVRQAPGKGLEWIAYIYPAFHNRYYANWVNGRFTISSDNAQNTVYLQLNSLTAADTATYFCARDAGSTDYKFNLWGPGTLVTVSS
VL: DVVMTQTPASVSAAVGGTVTIKCQASEDIESYLAWYQQKPGQPPKLLIYDASTLASGVSSRFSGSGYGTEFTLTISGVECADAATYYCQQDLTVGNVDNPFGGGSEVVVE
notes: as for B1

- Kd [1]: 1.38 nM
- koff [1]: 0.00069 s⁻¹
- kon [1]: 500000 M⁻¹ s⁻¹
- Kd [2]: 1.17 nM
- koff [2]: 0.00069 s⁻¹
- kon [2]: 729000 M⁻¹ s⁻¹
B4: 3A4 (antibody, V domains shown)
VH: QEQLVESGGGLVQPGGSLTLSCKGSGFDFNEYGVSWVRQAPGKGLEWIAYIYPAFHNTYYATWVNGRFTISSHNAQNTLYLQLHTLTAADTATYFCARDAGTTDYNFNLWGPGTLVTVSS
VL: DVVMTQTPASVSAAVGGTVSINCQASEDIENYLAWYQQKPGQPPKLLIYEASKLASGVSSRFSGSGYGTEFTLTISGVECADAATYYCQQALTIGNVDNPFGGGSEVVVK
notes: as for B1
